Assay results published in the supplement of paper PMC12764529.
± gives the half width of the 95% confidence interval.

Legend:
[1] = folding stability dG unfold from chymotrypsin proteolysis; higher = more stable
Protocol: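 Folding stability of de novo designed mini-proteins (<80 aa, no Cys; designed by TrROS, TrMRF, ProteinMPNN and the joint model) was measured by cDNA display proteolysis with trypsin and chymotrypsin. Each protease was used at 11 concentrations in a threefold dilution series plus a no-protease condition. K50 was inferred by Bayesian fitting of sequencing counts, and dG unfold was derived against a sequence-predicted unfolded-state K50 (Tsuboyama et al. method). Sequences shown include variable-length N-terminal GS-type padding (SAGGSAGG...) inside a display construct carrying a PA tag. Rows were kept only if the AF2 dimer inter-PAE was >15, to exclude likely homo-oligomers.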

[2] = folding stability dG unfold (combined trypsin and chymotrypsin); higher = more stable
In short: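 Unfolding free energy was derived, per protease or combined, against a sequence-predicted unfolded-state K50 and a shared folded-state K50, starting from K50 inferred by Bayesian fitting of sequencing counts. Digestion with trypsin and chymotrypsin was carried out on designed mini-proteins under 80 residues without cysteine in a PA-tagged cDNA display construct. Only designs with AlphaFold2 dimer inter-PAE above 15 were kept.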

| Sequence | folding stability dG unfold [1] | folding stability dG unfold [2] |
| --- | --- | --- |
| SGMPPVSVSSIEPVSVSPDGTSRTFRAPLTTPSGEPVTYTGPVSEILKRVEEEGWGPTASAPGGLVEVRDSA [r9_1078_JUSTAS] | -0.368 ± 0.12 kcal/mol | -0.583 ± 0.1 kcal/mol |
| SAGGSAGGSAGSAPAGALVTEEVSLEETETFFDPTTKKPLRTVRVTVPVKRERVVSPALPSAGGSAGGSAGG [r11_970_JUSTAS] | -0.795 ± 0.69 kcal/mol | < -1 kcal/mol |
| SAGGSAGGSMTETVEKTMPSNGATAEITKLPDGSIKVTIKGSNPVIETFPADEPLVIKPGLEGSAGGSAGGS [r12_1003_JUSTAS] | 0.621 ± 0.095 kcal/mol | 0.263 ± 0.18 kcal/mol |
| SAGGSAGGSAGGSMKTITFTDPAEIAAAIEEAEKEGVEEVVLLTPEGKTRVIPKGVPLPSAGGSAGGSAGGS [r4_260_JUSTAS] | 0.516 ± 0.083 kcal/mol | -0.00846 ± 0.37 kcal/mol |
| SAGGSAGGSAGGKTLSKEEALKKAKELAEKGEKVKIEVKNKKTKKTETIEITKEELEKLSAGGSAGGSAGGS [r10_779_TrROS_Hall] | 0.47 ± 0.13 kcal/mol | 0.151 ± 0.44 kcal/mol |
| SAGGSAMKIEVEEFPVLVPPELIPELKDKPGAIVKVKKVKFYAEAPEEEREKLKKELEEKTGIKTESAGGSA [r15_347_TrMRF] | 0.0727 ± 0.61 kcal/mol | < -1 kcal/mol |
| SAGGSAGGSAGMEMKLRPEPVVEVTPTVTTEPDPSLGTTVTTTTYTFDNGEVKTETDTGGSAGGSAGGSAGG [r11_463_JUSTAS] | 0.0371 ± 0.25 kcal/mol | -0.441 ± 0.28 kcal/mol |
| SAGGSAGGSAPPIPIQIKIERPDPDGEKRERKIPVWIPPNNIDEIKDEAEEEGWRVKEVTISAGGSAGGSAG [r3_453_TrROS] | 0.29 ± 0.05 kcal/mol | -0.477 ± 0.18 kcal/mol |
| SAMIVTEKEDPATNTTLVTTTEIYPDSITVTTTTITKSGEILTESPSTTTIPLGSPLGPENKAKNIALSSAG [r14_930_JUSTAS] | -0.184 ± 0.14 kcal/mol | < -1 kcal/mol |
| SAGGSAGGWVEQTYMVPPDMPVNMIKNKLEPWGVEIDDVEPFPNGNSIVTITIPPEFLKDPDEKSAGGSAGG [r6_470_TrROS] | 0.574 ± 0.22 kcal/mol | -0.262 ± 0.51 kcal/mol |
| SAGGSASPELQKRIKDALQEENPDYPVTVDEVDPKNNTIMITFNSPWHQKRIEKALKEDGIKITIYSAGGSA [r15_196_TrROS] | -0.0514 ± 0.38 kcal/mol | -0.618 ± 0.27 kcal/mol |
| SGMTPVSVSRKFTSTFPNGTPVSDPGGLVVLVPEPPPPPYVHLSPEEVEAARAAAAAAGSPLTEADIRASSA [r9_487_JUSTAS] | 0.164 ± 0.21 kcal/mol | -0.642 ± 0.42 kcal/mol |
| SAGGSAGGSAGGSMKTTTLTVKPEELEEVKKKLTPPDKTVTIKSVTKDPKEDLVTLTVESAGGSAGGSAGGS [r10_1030_JUSTAS] | -0.517 ± 0.59 kcal/mol | -0.923 ± 0.65 kcal/mol |
| SAGGSAGGSTLVFAPDDTLYLRIYLPETGGWRYIEVPAGQADSVARPLGAVRLEAYRRDEPVPSAGGSAGGS [r12_294_TrMRF] | 0.83 ± 0.23 kcal/mol | 0.123 ± 0.15 kcal/mol |
| SAGGSAGGMVKTYKTDKETAIELAEKIKKQGVKVEITPHPDSTLLTITINEPKIDPKNSPNIIISAGGSAGG [r6_392_JUSTAS] | 0.0843 ± 0.3 kcal/mol | < -1 kcal/mol |
| SAGGSAGGSARIDFPAIRRLLGSEAPAEDVVEAVEVIAKELAEELNLPDVEVDPRVVAPDELESAGGSAGGS [r12_666_TrMRF] | 0.638 ± 0.068 kcal/mol | 0.102 ± 0.22 kcal/mol |
| SAGGSAGGSAGGGPNIRTVTETTVEPTPDSVVTTRPVYYVDPSGTVLGSETTTTVDPNTTSAGGSAGGSAGG [r7_812_JUSTAS] | 0.179 ± 0.034 kcal/mol | -0.26 ± 0.13 kcal/mol |
| SAGSETVLKTTTEPRTEPDSEVETTTEVYPDGKRITRTTTTYPNPGEGNPATPVTTTTTTVTELPPNELSAG [r5_224_JUSTAS] | -0.378 ± 0.12 kcal/mol | < -1 kcal/mol |
| SAGGSAGGSGNPTPPAEPTVTLSTSDWNEVKERVEKAGLEYETFPGEGKVTLPASDFEKIKEESAGGSAGGS [r12_325_JUSTAS] | 0.356 ± 0.049 kcal/mol | -0.00313 ± 0.14 kcal/mol |
| SAGGMPKKITKLELLSETYDPLTNTYTVTVRATFDDGTEKVIELTLPRSEYEKLSKEEIKKRAIDLLLSAGG [r13_512_JUSTAS] | 5.29 ± 0.12 kcal/mol | 5.52 ± 0.34 kcal/mol |
| SAGGSAMVVVKITNPNGEKIEIEIEAETEEEAKKAAEELAKKLPKNVKVEVVKVEKVEVKDGKILKSAGGSA [r15_469_TrROS_Hall] | -0.919 ± 0.74 kcal/mol | < -1 kcal/mol |
| SAGGSAGGSAGRTIMIPPNQTAEEAVNHLKEELPPGNKNVTINYWDGDGEWEKFEIEVKKSAGGSAGGSAGG [r17_215_TrROS] | -0.616 ± 0.44 kcal/mol | < -1 kcal/mol |
| SAGGSAGGSVTAVPIEELIPLPTPRTLKVTGTVYVLPGGEVVTERTLTEPSPGTVTVETKTIPLSAGGSAGG [r6_727_JUSTAS] | -0.517 ± 0.4 kcal/mol | < -1 kcal/mol |
| SAGMMRVEVFGDGELLEVTELDGDTVEVPVPPERHRVRVFAPGDDRAAEAEVDPAKGVVVLKVPADARISAG [r5_469_TrMRF] | -0.197 ± 0.24 kcal/mol | -0.821 ± 0.38 kcal/mol |

| Sequence | folding stability dG unfold [1] | folding stability dG unfold [2] |
| --- | --- | --- |
| SAGGSAGGSAGGVAEWIQEQGFKVKDIPVPRPPNGNPWVKVEVEHDGGKRTYEIPLDEISAGGSAGGSAGGS [r10_35_TrROS] | 0.487 ± 0.12 kcal/mol | 0.0288 ± 0.14 kcal/mol |
| SAGGSAGGSAEKDVKLLDVEELEEERVALVEFPVDPKVVRIKFDKDMTIDEIKKKAKELAGSAGGSAGGSAG [r3_142_TrMRF] | 0.523 ± 0.03 kcal/mol | 0.0889 ± 0.15 kcal/mol |
| SAGRPPEALREEVSEETITIPVPSTDSDEAPALTTKVTKTTTRLPTPVTTTTTTTTYPDGTTTTTTTAASAG [r5_580_JUSTAS] | 0.285 ± 0.033 kcal/mol | -0.061 ± 0.11 kcal/mol |
| SAGGSAGGSAGKLKVEIEERNGKLVLKVKLELEPEPEPVEVEKKVEVKTETKMSLEELKKSAGGSAGGSAGG [r17_51_TrROS_Hall] | 0.952 ± 0.058 kcal/mol | 0.471 ± 0.096 kcal/mol |
| SAGGAPIPTVSTRTTPLPGGSSRTTTTTTYTFPETGTVYTATTTTTASPGGSPTTTATTTTTALAAASAGGS [r16_113_JUSTAS] | 0.0663 ± 0.26 kcal/mol | -0.507 ± 0.23 kcal/mol |
| SAGGSAGGSAGMVVETEVLETTPPGRTVRTRTTTREKTPDNAPVTTESESVTEVPSPPLESAGGSAGGSAGG [r11_689_JUSTAS] | 0.615 ± 0.026 kcal/mol | 0.273 ± 0.081 kcal/mol |
| SAGGAKVTEVKVENGYVTVTVDGKLVAKAPPPPPPPKVRVRNADGEEEERSLEDLLAENPENLEIELESAGG [r13_802_TrROS_Hall] | 0.359 ± 0.1 kcal/mol | -0.0384 ± 0.28 kcal/mol |
| SAGGMKIKIEITEIKKEGDTVYIKVKITITLPNGKVIKIEMTLRYNKETGKWEIVKIEKIEIFPLPESAGGS [r16_729_TrROS_Hall] | 5.3 ± 0.31 kcal/mol | 5.46 ± 0.49 kcal/mol |
| SAGGSAGGSMLKVRIKIEIDGKTLEVEIEVPPGTTIEELAEALKKLFPGKEVKIVSVEVYELPSAGGSAGGS [r12_427_TrROS_Hall] | 4.23 ± 0.14 kcal/mol | 4.47 ± 0.25 kcal/mol |
| SAGGSAGGSAGGAVGPDVGLPDAPVRFRNPSDDKVFTAYVPAGANFADLAKKYGVEIEPSAGGSAGGSAGGS [r10_202_TrMRF] | 0.673 ± 0.14 kcal/mol | 0.167 ± 0.15 kcal/mol |
| SAGGSAGGWFWVIKAEYPKNGRERSIQIPNEATDEDDVKEEVKELAEDLGAPIKKVEIEWIDPESAGGSAGG [r6_718_TrROS] | -0.474 ± 0.34 kcal/mol | < -1 kcal/mol |
| SAGGNIPPGETWKIKFPGKPIEIQMQQINGKPMYRLRDKNNKPHGTMTPDEADEFLDKLPPNWEIERYSAGG [r13_657_TrROS] | -0.253 ± 0.37 kcal/mol | -0.353 ± 0.22 kcal/mol |
| SAGGSAGGIWIPADEFKGQPIKVRIKHNGNERPIEEVKIKSHPDGFVFIEFPPELPENMKIEIESAGGSAGG [r6_630_TrROS] | 0.453 ± 0.12 kcal/mol | -0.0114 ± 0.15 kcal/mol |
| SAGGSAGGSSKTVPLKSEEEVKAVLEKLPPDAEYTVTDSEGKSKKVSPDEISFTPDPLTITVSSAGGSAGGS [r12_907_JUSTAS] | 0.362 ± 0.043 kcal/mol | -0.131 ± 0.092 kcal/mol |
| SVIIKGPGPETYYVEKFGNETKITKFSTEGDKFYKKEYYETFDPNNKTVSRKENEVEEIEPEEEKPFSELSA [r9_83_JUSTAS] | 0.546 ± 0.11 kcal/mol | 0.0208 ± 0.11 kcal/mol |
| SAGGSAGGSAGGGMILNITLIRPDGKPIVIEGPLDKPLYNPKKAGIENIPPEKLVKVEPRSAGGSAGGSAGG [r7_745_TrMRF] | -0.891 ± 0.8 kcal/mol | < -1 kcal/mol |
| SAGGSAGGSELRVLDARPTPDGLVVNLVAPDRLLVTRVDTGADGSQSVSSVVLDAPESTEFDLSAGGSAGGS [r12_981_TrMRF] | -0.918 ± 0.36 kcal/mol | < -1 kcal/mol |
| SAGGSAGGSAGGRIRLPGWEIEDVKVYETGDKPYYTITYKNPNGKPKKMLMPADDLDDFSAGGSAGGSAGGS [r10_645_TrROS] | -0.216 ± 0.61 kcal/mol | -0.618 ± 0.52 kcal/mol |
| SAGGSAGGSAGGSGPPLRTEERVEEVTLPNGERLLVETTTLTDPVTGETTVSRSIRLPLSAGGSAGGSAGGS [r4_445_JUSTAS] | 0.53 ± 0.1 kcal/mol | -0.38 ± 0.19 kcal/mol |
| SAGGSAGGSAGPVIRIPDATVTTDPATGTLTVTTAGRTVTVPPGATVTVLPDGTVVVERPSAGGSAGGSAGG [r17_34_JUSTAS] | 0.759 ± 0.035 kcal/mol | -0.0514 ± 0.067 kcal/mol |
| SADKEAVRKIAEKFMQEPGFEPRGISPDGHIMFRPPGQGRMYRIDIDVEKDNDGLDVKIPDIEPVPMPDSAG [r14_20_TrROS] | -0.0277 ± 0.31 kcal/mol | < -1 kcal/mol |
| SAMKKLRELLEKEFPDRPIKSVKNLGEKLAPDGTPYYVVELTFPDGSTITVTITSEEKPEILEAIEEEESAG [r14_143_JUSTAS] | 3.9 ± 0.22 kcal/mol | 4.03 ± 0.27 kcal/mol |
| SAGGMKITVTPSTDPNTPLTRETVTVPPTADPEAVAEKLRRAYPDGSTTTVTPRPDGTIVVTTTLPASAGGS [r8_255_JUSTAS] | 0.181 ± 0.083 kcal/mol | -0.291 ± 0.069 kcal/mol |
